Test system: MS2 coat protein
Assay: apparent KD of MS2 coat protein; higher = weaker reporter binding
Conditions: Eterna round: R107
Procedure, shortened: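 Binding of SNAP-549-labelled MS2 coat protein was measured on designed RNA switches transcribed on-chip from Illumina sequencing clusters. The protein rose in twofold steps from 0.7 or 1.5 nM to 3 µM, with 0.8–1.5 h per step early on and 10–20 min per step later, in 100 mM Tris-HCl pH 7.5, 80 mM KCl, 4 mM MgCl2, without or with constant ligand. Each design's apparent KD is the median of fits to its normalised cluster binding curves.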

[1] = input ligand: theophylline 20 uM
[2] = input ligand: theophylline 2 mM
[3] = input ligand: tryptophan 2.4 mM

Sequence | apparent KD of MS2 coat protein (input ligand: arginine 13.2 mM) | apparent KD of MS2 coat protein (input ligand: none) | apparent KD of MS2 coat protein [1] | apparent KD of MS2 coat protein [2] | apparent KD of MS2 coat protein [3]
GGCCGAUGGUGCGAUACCAGCUUGAGUGUACUGGCCAGGUACAUGAGGAUCACCCAUGUAAGCCCUUGGCAGCGCGUCAAAGGCC [#1 Exclusion - Theophylline B Attempt #20 (HarryS)] | 7.09 nM | 11.3 nM | 17.6 nM | 24.2 nM | 10.5 nM
GGGACAUGAGGAUCACCCAUGUACCGGUCCCGAGGACCGGUACGGCCGCCACUCGAUGACCUCAUAGUCUGCCUGAGCAGCAGAC [Abebeti] | 49.1 nM |  | 96.6 nM | 140 nM | 
GGGAGAUGAAUAGAAUGAGAUGACACAGAAGGAGCGUGAAUUAACACAGGUAGGUCGCUGACAACAUGAGGAUCACCCAUGUAUU [Same State Arginine A GF3] | 18.1 nM | 15.2 nM | 21.3 nM | 19.5 nM | 18.9 nM
GGGCAAGGUGCCGCCUUCGCCCACUGAGAAGGAGCGCAGGGUACUGCAGGUAGGUCGCUCAGACAUGAGGAUCACCCAUGUAGGA [Esislees] | 32.4 nM | 54.5 nM | 89.9 nM | 76 nM | 57.6 nM
GGGCCCGGGCCGGAAACGGCCCGGGCCCUGCGAGGACCGGUACGGCCGCCACUCGCUCGAGUGGGUACAUGAGGAUCACCCAUGU [#17 Exclusion Tryptophan A] | 17.7 nM | 28.4 nM | 45.8 nM | 33.3 nM | 31.9 nM
GGGUCGCGUUCGGCCGCCACUUGGAAACAUGAGGAUCACCCAUGUCAUAUGGUGGGACAUGUUGUAAGGACCGGGAACCGUCCUA [theeternabot_exclusion_MS2_Trp_B_11] | 34.6 nM |  | 82.1 nM | 83.4 nM | 
GGGUGCGGCACGGCCGCCACUGCGGUGGUGUGACAUGAGGAUCACCCAUGUUGUCAUGCGGCCCUUAGGACCGGGUGCCGUGCCC [#1 Exclusion - Tryptophan B Attempt #13 (HarryS)] | 39.5 nM | 33.7 nM | 60.9 nM | 62.4 nM | 43.8 nM
GGGUGGUAGGCGGCCGCCACUGAUUUUCAUUCCUGGAUGACAUGAGGAUCACCCAUGUUUACGGGCAGGACCGGGCCUGCUGUGG [aaaW] | 34.8 nM |  | 68.4 nM | 66.6 nM | 
GGGUGUGAUCCGGAUACCAGCGAACAUGAGGAUCACCCAUGUGACCUGAGAUCGGCUCUACGCCCUUGGCAGCCGCGGUCGCAGG [Same State Theophylline B GF13] | 23 nM |  | 19.5 nM | 15.4 nM | 12.4 nM
GGUACAUGAGGAUCACCCAUGUAUGGGUACCGAGGACCGGUACGGCCGCCACUCGCAGGACAUGAGGAUCACCCAUGUGCAACCG [SSTA DOUBLE!!! :-D #11] | 61 nM | 142 nM | 144 nM | 184 nM | 312 nM
GGUCGCCAACAUGGGUCGGUGAAAUGGGAAGGAGCGAGCGAGAGCUCAGGUAGGUCGCCCAAACAUGAGGAUCACCCAUGUAAUA [SSArg-A #28 UUU adds V2] | 21 nM | 125 nM | 113 nM | 74.8 nM | 53.4 nM
GGUCUCGAGAGCGAUACCAGCUUGAUCGUACUGGCCUGGUACAUGAGGAUCACCCAUGUAAGCCCUUGGCAGCGCUCUCGAGACC [#1 Exclusion - Theophylline B Attempt #7 (HarryS)] | 9.53 nM | 11.4 nM | 15.6 nM | 30.1 nM | 14 nM
GGUCUGAAAACCGAUCAAAGAUCGGAAGAUACCAGAGGGUGAUCCCUCCCUUGGCAGCUUCACAUGAGGAUCACCCAUGUAGACC [Omei inspired #BothOrNeither] | 29.3 nM |  | 188 nM |  | 82.5 nM
GGUGGCGGGACUGAUACCAGCCACCACCGAUAGACCACAUGAGGAUCACCCAUGUUGGGUGGCCCUUGGCAGCAGUCUUGCUGCU [#1 Same State - Theophylline B Attempt #13 (HarryS)] | 64.1 nM |  | 409 nM |  | 586 nM
GGUGGCUGGAUCGAUACCAGCCACCACCGAUAGACCACAUGAGGAUCACCCAUGUUGGGUGGCCCUUGGCAGCGGUCCGGCUGCC [#1 Same State - Theophylline B Attempt #7 (HarryS)] | 126 nM |  | 679 nM |  | 759 nM
GGUGGGAGCAACGAUACCAGCUACAUGAGGAUCACCCAUGUGGAAUGGGAGUCAACAGCGAGCCCUUGGCAGCGUUAGACCCAAA [Bebeeserdi] | 13.2 nM | 11.3 nM | 20.4 nM | 128 nM | 11.6 nM
GGUUGAUAUAUAUAUAUAUUGAUUACUGAAGGAGCGGGAAAUAACCCAGGUAGGUCGCAGAGAUCCACAUGAGGAUCACCCAUGU [!0.F] | 31.9 nM | 42.7 nM | 50.4 nM | 60.5 nM | 56.9 nM

Sequence | apparent KD of MS2 coat protein (input ligand: arginine 13.2 mM) | apparent KD of MS2 coat protein (input ligand: none) | apparent KD of MS2 coat protein [1] | apparent KD of MS2 coat protein [2] | apparent KD of MS2 coat protein [3]
GGUUGGUGUGGAGACAUAUUGAUUACUGAAGGAGCGGGAAUAAACCCAGGUAGGUCGCAGAGAUCCACAUGAGGAUCACCCAUGU [!0.P] | 121 nM | 44.8 nM | 42.8 nM | 41.2 nM | 22.4 nM
GUAAUAUACAGAAGGAGCGUGAUAGUGAGCUUGUACAACAUGAGGAUCACCCAUGUAUAAUCACAGGUAGGUCGCUGUAUAGGGU [Arg B SS t2] | 17 nM | 16.1 nM | 21.9 nM | 15.4 nM | 17.8 nM
GUACAUGAGGAUCACCCAUGUAUAGUUGAAGGAGCGACCGGAGGGUCAGGUAGGUCGCAGCACAUGGCGUCAACCCGUGUAUGCC [#1 Exclusion - Arginine A Attempt #25 (Inspired by Pi)] | 15.2 nM | 17.3 nM | 22.7 nM | 18.5 nM | 18.6 nM
GUACAUGAGGAUCACCCAUGUGGUAGGGAUACCAGCCAGAAGAAAGGCCCUUGGCAGCUUGUAUUUAGUGUGGGUUUGUUUGUUC [Exclusion - Theophylline A] | 29 nM |  | 40.3 nM |  | 25.6 nM
GUACCACAGUCGGCCGCCACUAAGUUGUAUUCCAGCAGGACGAAACAUGAGGAUCACCCAUGUCCUAGGACCGGGACUUCCGUCG [theeternabot_sameState_MS2_Trp_B_41] | 16.9 nM |  | 25.2 nM | 25.6 nM | 
GUGUUAUGGUCGGCCGCCACUCUGACAUGAGGAUCACCCAUGUUGUACAUGAGGAUCACCCAUGUGAGGACCGGGACACGUGCGA [Exclusion Tryptophan B GF10] | 203 nM |  | 363 nM | 476 nM | 
UAAAACAUGAGGAUCACCCAUGUAAUUGAUACCAGAGUGAUGAUCCUCCCUUGGCAGCAAAUAACGCAUUGGAAACAAUGCGAAA [Mat - Same State Theophlline A - Mod of Eli - D26] | 51.4 nM |  | 91.6 nM |  | 47.8 nM
UAAAAUAAUAAUGAUACCAGCCCUCCCUCCCGGGACAUGAGGAUCACCCAUGUCUCUCCCGGCCCUUGGCAGCAUAAAUAAUAAU [Same Stare - Theophylline B] | 12.1 nM |  | 15 nM |  | 12.1 nM
UAACAUGAGGAUCACCCAUGUUUAGAAGAACGAGGACCGGUACGGCCGCCACUCGAAAAGUGGAAGAAAAGAGGGAUAGAAUGAU [Same State Trp A GF1] | 14 nM |  | 16 nM | 12.2 nM | 
UAAUAUCACAUAUUAUGGGUGUAAUGUGAUACCAGCUAGGAAACUAGCCCUUGGCAGCACAUGAGGAUCACCCAUGUAAGCUGUA [(T1)'-(M)'-(T1)-(T2)-(M1)-(M2)-(T2)'_Design4_2/19/17] | 29.1 nM |  | 123 nM |  | 68.9 nM
UAAUGUGAGAGAAGGAGCGGAAGUCUCGUUACAACAUGAGGAUCACCCAUGUAACGUACAGUCCAGGUAGGUCGCUCUCGGGCGC [pqacmullin] | 16.9 nM | 14.8 nM | 21.4 nM | 18.1 nM | 15.5 nM
UACAUGAGGAUCACCCAUGUCUGAACUGAAGGAGCGCUAAAUAAGGCAGGUAGGUCGCGGAAUUUUGUGUGCAUAUGCAUAUGGG [9.L] | 34.5 nM | 36.4 nM | 39.4 nM | 37.9 nM | 38.2 nM
UAGCGAUCUCGUUAAAGGAUCCCAUUUGAUACCAGAGAACUUUGCCUCCCUUGGCAGCAAGUGACAUGAGGAUCACCCAUGUUGA [theeternabot_exclusion_MS2_Theo_A_3] | 16.4 nM |  | 20 nM |  | 16.4 nM
UAGUUGCUGACGGCCGCCACUAGAACAUGAGGAUCACCCAUGUAUUCUAGUGGACAUGGGUGGACUAGGACCGGGUCAGCAACAU [(Trp1)-(Ms2)-(T)'-(M)'-(Trp2)_Design9] | 21 nM | 20.6 nM | 37.8 nM | 21 nM | 30.8 nM
UAUAGUACCAGACAUGAGGAUCACCCAUGUCGAGGACCGGUACGGCCGCCACUCGGCAGUUUGCGUCCUCAGGUACUCCGGGUCA [Larisotexe] | 17.6 nM |  | 28.3 nM | 26.1 nM | 
UAUAUAGAUGGACGUCAUCUAGAUGCAGAAGGAGCGUAGGAAACUACAGGUAGGUCGCUGAGGUACAUGAGGAUCACCCAUGUAG [SSArg A #21 Slice of Pi] | 22.7 nM | 18.9 nM | 28.8 nM | 27 nM | 21.5 nM
UAUAUUGUGAUGGAUACCAGCAGAGAAAACGUUUAUCCUAACAUGAGGAUCACCCAUGUAUGCCCUUGGCAGCUGUUGUGGUAUA [8.P] | 34.7 nM |  | 55.3 nM |  | 38.6 nM

Reference: the supplement of paper PMC9170038
